This note sets out measurements from the DeepSol protein solubility set.

The nature of this series: soluble on expression in E. coli; label from the status in PepcDB or PDB records.
In the case of “MGSDKIHHHHHHMDLFSASFNPHQIAPLAERMRPRTLDDYIGQSEIIGKGKLLRRAIEADRVTSLILYGPPGTGKTSLAQVIANTTSSGFVRINAVAAGVKEIREIIQTATEQLHLYGKKTLVFCDEVHRFNKGQQDALLPAVENGTITFIGATTENPFFELNSALLSRSTLFRLQPLTAEDIRSGLAQALADKERGLGNYSVSIDPEAWEHWLNFANGDLRRALNALELAVLTTPPEQGVRRITLSVAEESIQQRAMRFDKNGDNHYDIVSAFIKSMRGSDPDAALYWLAVLLESGEDPRFIVRRIIVHASEDVGLADPMVMLQAHAAANALEWVGLPEARIPIAQAVLAIATAPKSNSTIMAIDRATGYVRSHPTGQVPAHLRDANYPGAKKMGHGKNYLYPHDYPGHWVEQGYLPQEVQGENFFTPSGTGQDRDNRGKPQVIPPSE”, the “soluble on expression in E. coli” value was “not soluble”. With “MGSDKIHHHHHHMDNLIITPNYVTEFNCVGPACEDSCCKNWTVYFDKKSYKHTISNPAFADLAKIAFVEIKESKENWASIKLDEQGACPFLTQEELCKIHQVGGEAALSYTCKTYPKKDTLVGKDKYQSLSLSCPEAARLVLFDPNAFQFQSHNGGNKKPAKPSPVWLEKSYQYSLDLLINANLDWELALLAIGLLIKTAEDASQYQIPIEELDKRHDQLKRFAESGLMAQQFEKTPYASQLQANLFVTIHSELCKINPRSGKARFGELNLAIEQACNEDNHYSIDLINQAWNQVAQPALKENPDVFERYILYYLFHNHFPGPVTQTPSQSFILLAIDCFMIRCYLSAMALKNNGINQREIILCFQVYQVIRQHRSSFVARLEELVEECGLNSISAVMTLLKTN”, the “soluble on expression in E. coli” value was “not soluble”. For “MGSDKIHHHHHHMDPLSSSDPARLASEQRRLRLQVLGLNTVEAEATFDRIARLAASFTQSPLAMVNFINDERQMFRGMYVPSGSPDDKVSPESGGIAFDLSNLSREAPGDYGFCPHVVAQGSQLALDDVFDYPRFKGNPLVNDLGVRSYLGTPLRDNTGMILGTVCVADMKPRTWDRGLREGMQELTETLLSDFKLRDSLLAQQQELFAVFDGAPFPIMLTEGPDHLLRYANGKQGSAFGLVPQFSPGRHVLPGLEAIGVFGAMDDAFHTGQAATLARASIQTYDSHTLQDFNFLCTPVRTSPAAPISGVLTVAMNTTGQDFAGSEQRAFAANVQERFERLGAGGLPGGMPGQRAESAGYRG” the value was “not soluble”. As for “MGSDKIHHHHHHMDRIIEKLDHGWWVVSHEQKLWLPKGELPYGEAANFDLVGQRALQIGEWQGEPVWLVQQQRRHDMGSVRQVIDLDVGLFQLAGRGVQLAEFYRSHKYCGYCGHEMYPSKTEWAMLCSHCRERYYPQIAPCIIVAIRRDDSILLAQHTRHRNGVHTVLAGFVEVGETLEQAVAREVMEESGIKVKNLRYVTSQPWPFPQSLMTAFMAEYDSGDIVIDPKELLEANWYRYDDLPLLPPPGTVARRLIEDTVAMCRAEYE”, the “soluble on expression in E. coli” value is recorded as “soluble”. As to “MGSDKIHHHHHHMDSNIDVEILSILSEASAPVGAKIIADSLKDRGYDIGERAVRYHLKVLDENSLTKKLGYSGREITEKGIEELEKANISFRIGSVFSQVIEKLYLSDFPSKVLINTAKFEGDYKTIKEMVLRSFEAGYSVGDYLNIKKKGNTVSVETLCSITFDNFLLKNGIIPTPEYGGIVKFEDYEPVNFEGVIDFKSSSIDPLVAFIMQGKTDVIGVIENGEGLVPANFRVIPKSSEKQFETILKKDMLNSVLAYGTENVLGMNLNPEQIGVVLVGGLTPLCVPHESGYTADISAATQLKDISSMEKKTKGFLEAKKKKGKFKVTPVLSKMLSKMQTINYDIEDKKGNVVVNTAKIPIEYKEEAINALKDSYENKLAISDRLKVECDDKFLNAYTICSLTVDGVFLKNKIPVIPYYGGILEVKADKKRFIEAIDYEGTSLDPHEVFFNKADGKNYILAGIRKVPMSASEKLIELNEKLGWNSIIEIGRPNNDICGVRVEKCMFGITTIGGTNPFANIRKNNIPVEMKTLHKSIDYSELTHYDDI”, the “soluble on expression in E. coli” value was “not soluble”.

As for “MGSDKIHHHHHHMDSNIFISTYHIRYGQEDSSMNKLKILFVLFTNIKTGAGTEKSLYYYLKYADISKFDITVLQTNLMPGGQRLSDSDLETIKNKAKFIEIKDYRGLLGFIRNKYLSYLLNLFILPMLLKICKYTVYHKKLKQLKDSNVIYLFNNDYSNLFSHKSVVIGSNHCAFDNLDSFSQKLIARLLSLRIILPSITAFHLFPHNVSFKEYFGNKPLILLSNGVDTDLYYPSHSQNLKTKILFVGRLEEVKGILMAIKVYNNIKKMFPVEFVIVGSGSLESEVDKLCASDTNVKHFKHVAENDLANIYRSCDIFLYPTQGDSYALVVLEALSSGLKVVTTVNIYRVYNDFIRFNVIKFADFDEKSLTQALLDIKNTVINKNEIHNYIEKNYSWKKVSENLFNLMYNLAVKN”, the “soluble on expression in E. coli” value is recorded as “not soluble”. For the sequence “MGSDKIHHHHHHMDSVDLEVLRSSVRWQQEGHRVLLVTVVRTWGSSPRPEGAMLAVRDDGLVVGSVSGGCIEDDLIDRVRRLGITADHPESVKYGISAEEAHRFGLPCGGTIELVTEPLKPASGIAELLDAVENGRLATRTLDMATGTATLGPAEATDGLVFDGNSLLTIHGPRYRMLVIGAGQLSKYLCQIAVGLGFQVTVCDPREEYTETWDIPGVTMVRTMPDDTVTDMKLDERCAVIALTHDPKLDDLALMEALRTRAFYVGALGSRRNNQARRERLKEFDLNDVQLARLHGPVGIFIGSRTPPEIAISILAEVVAAKNHVSLPDILQVEGAKAARELAAGTGSSCDT”, the “soluble on expression in E. coli” value is given as “not soluble”. Consider “MGSDKIHHHHHHMDSYSDVKMGEYEPTWRSGMAKSITFIVTEDCQLRCGYCYIIGKNKFNRMSFTIARTAVDYILHNRALFWEDSVIWDFIGGEPLLEIELIDRICDYIKRRMYELDHPWFNSYRFSFSTNGLLYGTEKVQRFIRKNAHHLSISISIDGTRKKHDAQRVFPDGSGSYDAVVKNVPLWLKQFPNASTKATVAHDDLPLLKESVIHLWQLGLKNVTINLVNENIWEPGDDIIYETQLRELADYIVENDLYDTHNCSFFSKSIGKPLDCKTDNGNWCGSGKMLAIDGDGVFYPCVRFAPYSMRYKPARSIGNCFDGLDMNRVRPFLVLNRSMQSPEECIACDVASGCAWCQGNNYDLAATDTIYQRAVYTCAMHKARVRANRYFGEKLADRLGRERPVEAR”, for which the “soluble on expression in E. coli” value is reported as “not soluble”. In the case of “MGSDKIHHHHHHMDTKQLKQDIIDYAYTIGIDSIGFTTADPFDELKQKLEAYHANGYASGFEESDIALRTEPKLSLPTARSIIAIAVGYPNKLKGAPKSVRGDRRGLFARASWGQDYHTIMRKRLDMLAAFIESKVPDVEIKSMVDTGVLSDRAVAERAGLGFVGRNGFVINPKLGTWTYLGEMLVSIPFEPDDPLLDSCGDCTICVDRCPTSALVGNGQLNSQKCISFLTQTKGYMPDQYRYKIGNRLYGCDTCQQVCPKNRGINTEQDDIILEPEILKPRLVPLLRMSNKEFKQTYGHLAGAWRGKKPIQRNAILALAHFNEVDAIPELKKVATTDERPMIRATAYWAIGQILGEEARDFINANYDQEDAEVQNEMIKGLDTRRE”, the “soluble on expression in E. coli” value is on record as “not soluble”. On to “MGSDKIHHHHHHMDTLFKALSDPARRAILDSLRARDGQSLTDLEPQLDMTRFGVMKHLKLLEDAGLIVTKRQGRFKYHYLNPMPLQEMLDRWVAPFLQPQARHLSDLKAKLERSHTMGKPDFMMQTFIRCTQDALWDALTKADQMAAYHFMCNEVRGNASVGNVTEFVLPDGNPMLRQVTTELDPKSRIAATFEPMFMGPDAPASHMVYLIEPQGETCKLTIEHYDMAPGQEGFAEGWARLASSLKSYLETGKAMKGAA”, for which the “soluble on expression in E. coli” value is on record as “not soluble”. With “MGSDKIHHHHHHMDTQAFKRSLHHSERYNRRGFGRANEVASNLEKAYQSSLIGSIRDNGYVLQHGRLQVKLAEAFGFCWGVERAVAMAYETRRHYPSERIWITNEIIHNPSVNEHLREMDVLFIHAEGGVKDFSCVNDGDVVILPAFGATVQEMELLHERGCHIIDTTCPWVSKVWHTVEKHKKQEFTSIIHGKVKHEETLATSSFAGTYLVVLDLDEAQLVADYILGQGDRAAFMKRFAKACSANFDPDQDLQRLGVANQTTMLKSETEEIGRLFERTMLRKYGPIELNKHFLSFNTICDATEERQQAMFSLVDEPLDLLVVIGGFNSSNTTHLQEIAISRGIRSFHIDTPERIGDNNSIQHKPLGEDLFIESNFLPAGSVSVGITSGASTPDRVVEHVIQKLIDLTSG”, the “soluble on expression in E. coli” value was “not soluble”. For “MGSDKIHHHHHHMDTRTLIYLHQYFSIPTVSGGTRSWEFSTRLVQDKWQVCMFCGDSEIHGIPAVNILKLFNTKNVSFKLNVIPLKYSNYMSFSRRIFAFLSFAVRSSLQVLREEKADLTFATSTPLTIAIPALLRKWLHGTPYIFEVRDLWPEMPIAMKAVRSPLAIFLARQLELIAYQNASHIVALSPGMKEGIVKQGISPEKVEVIPNACDNARFNISETIGLEFLRQHPELSGGPLIVYTGTFGHINGVNYLAYLASHMRNIIPEAKFLVVGSGVCESEVREASCQLGILEKNFWMWPPIPKAEMPALLSACTVATSLFKPIPEMEHNSANKFFDALAAGRPVVINYGGWQKEILEQSGAGISISSNDPKVAAIQLAKFLNSSECLQSAQAAARKLADTVFDRDILYKKLANVFQKVLNETHSDI” the value was “not soluble”; for “MGSDKIHHHHHHMDVMVRPSGMPAESGQEPMADGPVAAPFMRLSSKLRDDLYEEVRHDKTWHQRLTWSRGEWTPGSLTSLASRFERSLRWNKVKPEKENFDSPRPTIQSQSICREHLTGTAPEFLSEETLRILTEAVGSAQIKEAVIDMECWERTFLNSEGCSVTTQGKWFDFYASYNTGAALVRWRDGTSTQEEVSRLARPPLPILGRGVTWSEPRTIDTVRYDLVLLSPTASSVVIHELIGHGCEHFREKIVGLRVGPEELRVVAFPKNGSGFDDEGTPSEEIVLVENGIVRHAVRDRATGGMAPFSGLTKVASHGVKPGSRCTHLKAEGESSQEGVTGVPAERTVWIEHFSAANYHSGRAFFRSGLAWVGSREELLYPLMPFTMSIDIYELASLLWHLDGQTERARSGLCNKDGEFLPTFNFAPKIALRPVVSIRP”, “not soluble”. For the sequence “MGSDKIHHHHHHMDYRKLPHGNEKVSTIGIGSGSLKETTSKEIEDIVTYSMEEGVNLIDTVMYDTTAAEPINNALKGHRDDMLMQIHLGVWYPKGTYSRTRVPRNVKKGFEQELKKYSTNYADIGLISYVDRVKDFEKIMSNGIFDYAKKLKQDGTIRYLGISSHSEEICKLFIETGEIDVIMFSINAAYDFKPSWGKLNLKNERMELYQECEKQGVALTVMKAYGGGQLLNEKTSPFNHAMTVPQCIQYALDRPGVVSCISGVSSKADLDEALKYYSTSEKDRDYSFIASLPHRDIMGTCIYCNHCQPCPSGIDIGIVNKYLDLAKAGDELAKDHYLKLSKNANDCTNCGVCEKNCPFHVDIRGRMLKAKNYFDKTNSVKK”, the “soluble on expression in E. coli” value is on record as “not soluble”. For “MGSDKIHHHHHHMEASFDIALASAYVNAHMYSQGLHVSRVAAKDSDFQGVSEKRYEIKDPKEMSRLIKKIGALFGSPLVRIVKLNPEWSYEHAPGDGRGYKYGEPVDIPEHWQYGIIMGIPLSWETREGAPSFFHTFEGYGNASMHCARMAEFVKKLGYPARENSPHARYEYIMPPHMVAAGIGEQGRLGVVVTPEFGPNFRPSMVVTNMPLEPDKPIDVGIRKFCMNCKICADQCPSGSISFDGPKEINGRGYDGWQINASTCHNFWMSVPNGGCRVCLAVCPFSKESNWLHTTARDIAVRERTGITASTLTWMEKAFYGVNTPEHYHYKEGTRQFDYLVGEKPWFFESKDFLKEN”, the “soluble on expression in E. coli” value is “not soluble”.

In the case of “MGSDKIHHHHHHMEDLYLECPGCDEVTLHTVLKEKESKKHLKITVKCQECGTVHDIEKNFKLKDIKIVISRYDESEQSVLQIATDEILKVEDVILAFDESVEITALETEDSRRVSSSAAQDLKMIWARSIDVPKKVGISINSRESTYSFNILVPQDYVFEEKKIYRAGRDFFRIKQIKTEKGNFSRELARKIKRIYGEPVKPLRDYTDLTDYML”, the “soluble on expression in E. coli” value was “not soluble”.
